Source: paper PMC9537018

B1: Staphylococcal nuclease domain-containing protein 1 (SND1): N50Q (protein)
parent chain: MASSAQSGGSSGGPAVPTVQRGIIKMVLSGCAIIVRGQPRGGPPPERQINLSNIRAGNLARRAAATQPDAKDTPDEPWAFPAREFLRKKLIGKEVCFTIENKTPQGREYGMIYLGKDTNGENIAESLVAEGLATRREGMRANNPEQNRLSECEEQAKAAKKGMWSEGNGSHTIRDLKYTIENPRHFVDSHHQKPVNAIIEHVRDGSVVRALLLPDYYLVTVMLSGIKCPTFRREADGSETPEPFAAEAKFFTESRLLQRDVQIILESCHNQNILGTILHPNGNITELLLKEGFARCVDWSIAVYTRGAEKLRAAERFAKERRLRIWRDYVAPTANLDQKDKQFVAKVMQVLNADAIVVKLNSGDYKTIHLSSIRPPRLEGENTQDKNKKLRPLYDIPYMFEAREFLRKKLIGKKVNVTVDYIRPASPATETVPAFSERTCATVTIGGINIAEALVSKGLATVIRYRQDDDQRSSHYDELLAAEARAIKNGKGLHSKKEVPIHRVADISGDTQKAKQFLPFLQRAGRSEAVVEYVFSGSRLKLYLPKETCLITFLLAGIECPRGARNLPGLVQEGEPFSEEATLFTKELVLQREVEVEVESMDKAGNFIGWLHIDGANLSVLLVEHALSKVHFTAERSSYYKSLLSAEEAAKQKKEKVWAHYEEQPVEEVMPVLEEKERSASYKPVFVTEITDDLHFYVQDVETGTQLEKLMENMRNDIASHPPVEGSYAPRRGEFCIAKFVDGEWYRARVEKVESPAKIHVFYIDYGNREVLPSTRLGTLSPAFSTRVLPAQATEYAFAFIQVPQDDDARTDAVDSVVRDIQNTQCLLNVEHLSAGCPHVTLQFADSKGDVGLGLVKEGLVMVEVRKEKQFQKVITEYLNAQESAKSARLNLWRYGDFRADDADEFGYSR
B2: Staphylococcal nuclease domain-containing protein 1 (SND1): N168Q (protein)
parent chain: B1 parent chain
B3: Staphylococcal nuclease domain-containing protein 1 (SND1): N283Q (protein)
parent chain: B1 parent chain
B4: Staphylococcal nuclease domain-containing protein 1 (SND1): N416Q (protein)
parent chain: B1 parent chain
B5: Staphylococcal nuclease domain-containing protein 1 (SND1): tunicamycin (protein)
parent chain: B1 parent chain

Assay: confocal colocalisation with ER marker CNX
Settings: glycan lost; control: WT-SND1-EGFP

Q: Which localisation_or_trafficking does the source give for B1 here?
A: increases

Q: Which localisation_or_trafficking does the source give for B2 here?
A: no change

Q: With B3 as the protein, how does the localisation_or_trafficking read?
A: no change

Q: For B4, which localisation_or_trafficking is on record?
A: no change

Assay: confocal colocalisation with Golgi marker GM130
Settings: glycan lost; control: WT-SND1-EGFP

Q: Which localisation_or_trafficking does the source give for B1 here?
A: decreases

Q: For B2, which localisation_or_trafficking is on record?
A: no change

Q: For B3, which localisation_or_trafficking is on record?
A: no change

Q: For B4, which localisation_or_trafficking is on record?
A: no change

Assay: immunoblot of protein level, rescue by MG132 or CQ
Settings: glycan lost; control: untreated WT-SND1-EGFP

Q: With B5 as the protein, how does the degradation_or_half_life read?
A: decreases

Q: Which degradation_or_half_life does the source give for B1 here?
A: decreases
